Experiments:
[1] = tested on: CC(=O)N[C@H]1[C@@H](OP(=O)(O)OP(=O)(O)OC[C@H]2O[C@@H](n3ccc(=O)[nH]c3=O)[C@H](O)[C@@H]2O)O[C@H](CO)[C@@H](O)[C@@H]1O[C@H](C)C(=O)N[C@@H](C)C(=O)N[C@H](CCC(=O)N[C@@H](CCC[C@@H](N)C(=O)O)C(=O)O)C(=O)O; assay: purified protein; conditions: pH 8.5; 37.0 °C
[2] = tested on: C[C@@H](N)C(=O)N[C@H](C)C(=O)O; assay: purified protein; conditions: pH 8.5; 37.0 °C

Which Km [1] does the source give for MurF (Mycobacterium tuberculosis H37Rv) here?
Its Km is 64.5 ± 0.2 µM.

And the kcat/Km [1]?
Its kcat/Km is 21700 ± 200 M⁻¹ s⁻¹.

What about the Km [2] of the same substance?
Its Km is 78.1 ± 0.2 µM.

What about the kcat/Km [2] of the same substance?
The kcat/Km was 18100 ± 300 M⁻¹ s⁻¹.

Source: PMC3605390, “Characterisation of ATP-Dependent Mur Ligases Involved in the Biogenesis of Cell Wall Peptidoglycan in Mycobacterium tuberculosis” (PLoS ONE, 2013)
